# Measured values from PMC10567711, “Structure-guided inhibition of the cancer DNA-mutating enzyme APOBEC3A”.
# How the values were obtained:
# [1] = target: T1, A3A-E72A (human, UniProt P31941 1-199, E72A); experiment: X-ray crystallography; 1.91 A; Cl-; ITC: 50 mM Na+/K+ phosphate pH 6.0, 50 mM NaCl, 50 mM choline acetate, 2.5 mM TCEP, 200 uM EDTA, 30 mg/mL BSA, 25 C; NMR inhibition: 50 mM Na+/K+ phosphate pH 7.4, 100 mM NaCl, 1 mM TCEP, 100 uM DSS, 10% D2O, 20 C, 140 nM A3A; details: protein: recombinant; hairpin, potential 6 bp stem, 4-nt loop ATTC
# [2] = target: T1, A3A-E72A; experiment: X-ray crystallography; Zn2+; 3.15 A; one copy threaded with GACC loop; ITC: 50 mM Na+/K+ phosphate pH 6.0, 50 mM NaCl, 50 mM choline acetate, 2.5 mM TCEP, 200 uM EDTA, 30 mg/mL BSA, 25 C; NMR inhibition: 50 mM Na+/K+ phosphate pH 7.4, 100 mM NaCl, 1 mM TCEP, 100 uM DSS, 10% D2O, 20 C, 140 nM A3A; details: protein: recombinant; hairpin, 4 bp stem incl. one AT pair, 4-nt loop CTTC
# T1 sequence (P31941 whole entry E72A): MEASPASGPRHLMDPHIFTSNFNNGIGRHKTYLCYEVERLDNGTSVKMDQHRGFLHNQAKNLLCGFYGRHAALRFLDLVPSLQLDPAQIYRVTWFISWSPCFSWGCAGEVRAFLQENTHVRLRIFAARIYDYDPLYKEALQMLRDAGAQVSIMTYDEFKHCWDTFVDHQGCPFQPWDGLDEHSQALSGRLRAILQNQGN
binder,measurement,setting,value
CCCATCATTCGATGGG (structured_DNA) [ATTC-hairpin],binding result,[1],binds
GCCACCTTCGTGGG (structured_DNA) [CTTC-hairpin],binding result,[2],binds
